For the assay, the target named is SSB C-terminal peptide (SSB-Ct peptide) (E. coli). The assay can be described thus: ITC. A general note: ITC needs no label: the signal is the heat of the interaction.

Sequence of PriA DNA helicase (P17888 whole entry): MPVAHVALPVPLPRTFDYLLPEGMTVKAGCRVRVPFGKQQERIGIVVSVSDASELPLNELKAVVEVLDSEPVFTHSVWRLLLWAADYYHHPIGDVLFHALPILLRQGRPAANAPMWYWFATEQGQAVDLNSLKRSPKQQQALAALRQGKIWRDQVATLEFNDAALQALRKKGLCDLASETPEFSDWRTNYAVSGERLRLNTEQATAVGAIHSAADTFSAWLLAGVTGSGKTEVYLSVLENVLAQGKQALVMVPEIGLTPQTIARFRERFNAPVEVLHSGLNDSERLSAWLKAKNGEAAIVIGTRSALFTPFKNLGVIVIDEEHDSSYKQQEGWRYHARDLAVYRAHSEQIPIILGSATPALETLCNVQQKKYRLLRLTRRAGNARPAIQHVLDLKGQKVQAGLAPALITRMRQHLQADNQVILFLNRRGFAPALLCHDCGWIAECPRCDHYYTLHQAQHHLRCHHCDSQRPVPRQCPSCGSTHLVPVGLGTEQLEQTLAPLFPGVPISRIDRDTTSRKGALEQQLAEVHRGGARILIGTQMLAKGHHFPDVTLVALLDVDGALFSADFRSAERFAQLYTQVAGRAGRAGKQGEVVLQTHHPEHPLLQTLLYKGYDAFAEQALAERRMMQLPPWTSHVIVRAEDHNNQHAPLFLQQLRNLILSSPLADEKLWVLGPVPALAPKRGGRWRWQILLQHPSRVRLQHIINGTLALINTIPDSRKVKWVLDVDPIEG
Sequence of χ subunit of the DNA polymerase III holoenzyme (P28905 whole entry): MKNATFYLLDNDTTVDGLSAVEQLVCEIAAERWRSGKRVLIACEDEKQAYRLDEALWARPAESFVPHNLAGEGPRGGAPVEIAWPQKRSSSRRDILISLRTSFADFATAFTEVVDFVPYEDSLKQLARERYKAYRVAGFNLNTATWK

“PriA DNA helicase (from UniProt P17888 1-732) (enzyme)” had a Ka of 1.8e+06 M⁻¹ and a dH of -6.9 kcal/mol.

For “χ subunit of the DNA polymerase III holoenzyme (from UniProt P28905 1-147) (natural protein)”, the dH was -8.6 kcal/mol.

For the origin of these results see PMC2583361.
